± gives the uncertainty stated by the source.
Assays:
[1] = amyloid nucleation score (Sup35N fusion, yeast selection) (log enrichment); library NNK2; higher = more nucleation; inactive = no reads after selection
Procedure, shortened: (§1)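 Peptides of 20 random codons fused to Sup35N were expressed in psi-negative yeast, induced 24 hours with 100 μM copper sulfate, then grown 7 days at 30°C on medium lacking adenine and uracil. Input and output plasmid inserts were Illumina-sequenced. Nucleation score is the DiMSum log enrichment of output over input reads, centred on the mode score of non-aggregating sequences, excluding sequences with under 100 input reads. Random libraries had three technical output replicates.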

[2] = amyloid nucleation score (Sup35N fusion, yeast selection) (log enrichment); library NNK3; higher = more nucleation; inactive = no reads after selection
Procedure, shortened: as §1

In the case of ATNNPVMNFAGLAKECFAYM, the amyloid nucleation score [1] is reported as -0.106 ± 0.79.

ATVFF gave an amyloid nucleation score [1] of 0.768 ± 0.28.

For YQIMDPNRLAFVTDMLSRDL, the amyloid nucleation score [2] was “inactive”.

In the case of YQNILLAYYDWVVLYQ, the amyloid nucleation score [2] is reported as “inactive”.

Work on YQRYGRGFLRVSSFSLDSRM yielded an amyloid nucleation score [2] of -0.352 ± 0.81.

In the case of YRAYVYEDTFWWAWYQFILL, the amyloid nucleation score [2] is reported as “inactive”.

With YRDCISEGLKLSNWNELLGK the amyloid nucleation score [2] was “inactive”.

With YRDFDEDCVIL the amyloid nucleation score [2] was “inactive”.

YRDRIGWQVVISII gave an amyloid nucleation score [2] of -0.087 ± 0.27.

For YREVYLNRRLERL, the amyloid nucleation score [2] was “inactive”.

For YRKWGCWHRTFRLIYCTVVL, the amyloid nucleation score [2] was “inactive”.

With YRLPHS the amyloid nucleation score [2] was “inactive”.

YRPWHDIRTICCSTSSSTIE showed an amyloid nucleation score [2] of 2.5 ± 0.063.

With YRRAWRTIILKCTCLNQHV the amyloid nucleation score [2] was 0.2 ± 0.42.

Work on YRVVC yielded an amyloid nucleation score [2] of -0.543 ± 1.5.

YRWSPWYNYCSSWTWCQMST showed an amyloid nucleation score [2] of 1.51 ± 0.13.

For YSANDLPVNAHGEILKVGLL, the amyloid nucleation score [2] was “inactive”.

In the case of YSCGFDLAAWAFTDVIRRRI, the amyloid nucleation score [2] is reported as “inactive”.

For YSCLLIYVKYGMASIYGRMF, the amyloid nucleation score [2] was “inactive”.

YSCSYNTSTN showed an amyloid nucleation score [2] of -0.52 ± 0.68.

With YSDKDSLGSGNSFFSFSEKW the amyloid nucleation score [2] was “inactive”.

With YSEFPPTSKQ the amyloid nucleation score [2] was “inactive”.

With YSEYMVTNRKVSAGHTARWD the amyloid nucleation score [2] was “inactive”.

For YSFSNVLVLGSTGPGTSSQA, the amyloid nucleation score [2] was “inactive”.

In the case of YSFVAVSSFDREHSRIFGVS, the amyloid nucleation score [2] is reported as “inactive”.

In the case of YSFWIVFMRY, the amyloid nucleation score [2] is reported as “inactive”.

In the case of YSGFSYVRGLYGSGYVMAQP, the amyloid nucleation score [2] is reported as -0.192 ± 0.52.

For YSGIAS, the amyloid nucleation score [2] was “inactive”.

In the case of YSGWTPKLAVH, the amyloid nucleation score [2] is reported as “inactive”.

Work on YSIDMHVNVHGTYYLMSKWV yielded an amyloid nucleation score [2] of 1.73 ± 0.12.

In the case of YSISKAFPMLSRLDMDMFGA, the amyloid nucleation score [2] is reported as “inactive”.

Substance YSKRAHVFYES has an amyloid nucleation score [2] of -0.06 ± 0.36.

With YSKSLCVFKSICIELDF the amyloid nucleation score [2] was 2.08 ± 0.062.

In the case of YSLRNNFLLVFSLVSDRPIG, the amyloid nucleation score [2] is reported as 1.06 ± 0.12.

With YSNLLAYWIQISKWIATGRC the amyloid nucleation score [2] was “inactive”.

With YSNWLTSRNYTNLLLL the amyloid nucleation score [2] was “inactive”.

In the case of YSPTAN, the amyloid nucleation score [2] is reported as “inactive”.

For YSSFAANSCFLERVEVKSDL, the amyloid nucleation score [2] was “inactive”.

For YSSGGYLTRVRRKGSMYRAL, the amyloid nucleation score [2] was “inactive”.

With YSTMLLVHYMFLKIE the amyloid nucleation score [2] was “inactive”.

With YSVTAHPLDHTNPRGNYPDH the amyloid nucleation score [2] was “inactive”.

For YSYNQIWFLLV, the amyloid nucleation score [2] was “inactive”.

For YTALL, the amyloid nucleation score [2] was “inactive”.

With YTNALPAITFVVIGHLAIQ the amyloid nucleation score [2] was 2.64 ± 0.068.

In the case of YTSGRSVSGRCHLWELKAIK, the amyloid nucleation score [2] is reported as “inactive”.

For YTWLAFRFSTSLHPRYSNIG, the amyloid nucleation score [2] was “inactive”.

For YVAVGKKLNHRSSSSLSRFF, the amyloid nucleation score [2] was “inactive”.

For YVFFIVMASSCWHVHSYNYF, the amyloid nucleation score [2] was -0.437 ± 0.98.

For YVLELGAGGPKNMIHDMNAD, the amyloid nucleation score [2] was “inactive”.

With YVLFCCCPLMDFITDLSLST the amyloid nucleation score [2] was 2.1 ± 0.055.

For YVLQTFEGSCVLKRLHIRFM, the amyloid nucleation score [2] was “inactive”.

YVSLVSLCMCIRLQGEFLYG gave an amyloid nucleation score [2] of 1.24 ± 0.089.

For YVSQQYCWPGFFHRVHTGKS, the amyloid nucleation score [2] was “inactive”.

With YVSRDVGNRNATSY the amyloid nucleation score [2] was “inactive”.

With YVWASIFFFTSYDEVVGRHV the amyloid nucleation score [2] was 1.46 ± 0.13.

In the case of YWASARTRSGYFDVNKFSGG, the amyloid nucleation score [2] is reported as “inactive”.

With YWDDWLNSTGRDPSHKPRRT the amyloid nucleation score [2] was 1.95 ± 0.07.

In the case of YWIEAPIFYPLFTAIVKQAM, the amyloid nucleation score [2] is reported as 0.294 ± 0.49.

With YWKRAGPQFGVPDSWTPSGP the amyloid nucleation score [2] was “inactive”.

In the case of YWLDLYSKCLSSSVEISLGI, the amyloid nucleation score [2] is reported as “inactive”.

With YWLMKALQIWHSENRFRYIE the amyloid nucleation score [2] was “inactive”.

In the case of YWNIFGVVSN, the amyloid nucleation score [2] is reported as “inactive”.

In the case of YWNLIWWAKQWDVFTGEEAL, the amyloid nucleation score [2] is reported as “inactive”.

In the case of YWQDGQ, the amyloid nucleation score [2] is reported as “inactive”.

For YWRELDSIQCNLFRGQPFNL, the amyloid nucleation score [2] was “inactive”.

With YWYIIYAMSGLWYSSVNRVD the amyloid nucleation score [2] was “inactive”.

In the case of YYCTM, the amyloid nucleation score [2] is reported as “inactive”.

For YYDYLRWLLEHIHFCTWGPY, the amyloid nucleation score [2] was “inactive”.

In the case of YYKRYGGYPGNQHMSVGHRF, the amyloid nucleation score [2] is reported as “inactive”.

With YYLFWVAFDMMLRLRFFVMD the amyloid nucleation score [2] was “inactive”.

In the case of YYLGSADGDPDIKWSLGYRK, the amyloid nucleation score [2] is reported as “inactive”.

YYLSTTGMWNFVSSNGALYG gave an amyloid nucleation score [2] of -0.793 ± 1.3.

For YYLVDRWREFVGYRKKDCVA, the amyloid nucleation score [2] was “inactive”.

In the case of YYLVSWYVTTVLKSGLLSVR, the amyloid nucleation score [2] is reported as “inactive”.

For YYQGAQPLNPGAR, the amyloid nucleation score [2] was “inactive”.

With YYQMRYCQWDAIQVENWVRR the amyloid nucleation score [2] was “inactive”.

In the case of YYRGITMCT, the amyloid nucleation score [2] is reported as “inactive”.

For YYTWVCECSYWHSVFM, the amyloid nucleation score [2] was “inactive”.

In the case of YYVTQGVRVGQYLTNRERDE, the amyloid nucleation score [2] is reported as -0.195 ± 0.44.

For YYWRMYCS, the amyloid nucleation score [2] was “inactive”.

For YYYLKCFTYCVLLFYYS, the amyloid nucleation score [2] was “inactive”.

In the case of YYYQNRYFELRHLPEFSS, the amyloid nucleation score [2] is reported as “inactive”.

From the supplement of paper PMC12042874
